# B1: OR4K15 (parent)
# chain: GUUAACGGUCAUAGGCCAUGGAAACUAGGAGCACCAUUUCGCUGCCAGUGAAGAAAUGAACAAAGAAAAUCUGGGCCAGGCAGGCAUCAAAAGAAAUAGUCUUGCGCUCAACCAGAAAGUCUGUAAUCAUUUUAAGGGUA
# Variants of: B1
# Test: self-cleavage, relative activity (ratio to wild type); higher = more cleavage; in vitro, sequencing; the parent is a self-cleaving ribozyme
row,Variant,self-cleavage
1,A56U A126U,0.81
2,A56U A126G,1.34
3,U9C A68G,1.51
4,A91C A114G,0.64
5,U120C U131C,0.85
6,C34U G44A,1.66
7,A47G U130C,0.33
8,A4G U43G,0.55
9,G14A A54U,1.55
10,A51U U72C,0.23
11,A22U A54G,1.46
12,G74A A110G,0.02
13,A27G A116G,0.99
14,G75C A110G,0.02
15,A54G A110G,0.21
16,A36G C128A,1.16
17,A13G U57A,1.24
18,A86G G104A,0.02
19,U9C G15A,1.47
20,G8A A96G,1.97
21,U12C U103C,1.41
22,A55G C85U,1.27
23,A66U U120G,1.14
24,U87C A94U,1.37

row,Variant,self-cleavage
1,A27C A33U,2.06
2,A24G G65U,1.3
3,U12A A90G,0.57
4,A23U C76A,0.23
5,G50A A60C,1.9
6,U9A A24G,1.29
7,G41C A95G,2.25
8,A96G G137U,1.8
9,A54G U130C,0.76
10,C113U U132A,0.06
11,U103C A140G,1.38
12,U3C U103C,1.12
13,U57C U132C,0.52
14,A13U U87A,1.61
15,U37C G80A,0.21
16,A114C U127C,0
17,A67G A116C,0.26
18,C61U A91U,1.73
19,C61U A91G,0.87
20,C16U U122C,1.91
21,A5C C105U,0.08
22,U26C A27G,0.75
23,A96C U122A,0.42
24,G74U C113A,0.04

row,Variant,self-cleavage
1,G21A G106A,0.02
2,U26A A92G,0.89
3,A86G A114C,0.06
4,C34U A117G,1.91
5,U102A U120C,0.37
6,A27G U102A,0.63
7,A59G A67G,1.28
8,A5U A60G,0.99
9,A62G G75U,0.15
10,U39A A126C,0.87
11,A117U A118G,0.97
12,U43G A111G,0.03
13,A5G A47G,1.37
14,A18U A86G,1.01
15,G14A U72C,0.22
16,U9G U100C,1.91
17,G7A A110C,0.23
18,A22G A27G,1.04
19,G74A A96C,0.14
20,U57C C105U,0.15
21,G93A U102A,2.2
22,A98U G104A,0.12
23,A82G A110G,0.07
24,A24G A114G,0.44

row,Variant,self-cleavage
1,C10A A118G,1.99
2,A82U A86U,0.32
3,A82U A86G,0.12
4,U103C A126G,0.35
5,C35U U87C,1
6,U19A A126G,1.38
7,A63G C105U,0.05
8,A96U A117G,1.75
9,A62G U124G,1.13
10,A51U A52G,0.93
11,A18G U49C,1.43
12,A47G A96G,1.18
13,A22G A96C,1.58
14,A47G C105A,0.07
15,U43C A135G,2.01
16,A52G A140U,1.15
17,G7U U49C,1.71
18,A51G C128U,2.26
19,U72A U100G,0.19
20,C25A A56G,1.41
21,G83A U102C,0.44
22,C6U A134G,1.38
23,C85A A125G,0.72
24,U9C U122C,1.15

row,Variant,self-cleavage
1,A98G A125U,0.84
2,G79U A116U,0.03
3,A36G A111G,0.03
4,A63C U139C,1.97
5,A78C U103C,0.14
6,U38C A110G,0.17
7,A52G A86C,0.77
8,A33G C81U,0.17
9,A68C A78G,0.24
10,A89U A117U,0.7
11,A5G G137A,0.6
12,A5C A47G,1.1
13,U97A U130C,1.59
14,U39A A67G,1.5
15,G41C U87C,2.03
16,A4C U100C,1.19
17,C45G A116G,0.77
18,A30G A111G,0.05
19,A69G U87A,1.29
20,U57G A78U,0.22
21,A13G A94G,0.6
22,A66C U132C,1.6
23,A36C A78C,0.32
24,U19C U120C,0.77

row,Variant,self-cleavage
1,A52G A89G,1.84
2,G21U A62G,1.54
3,A18U A56G,1.48
4,U3A A11G,1.03
5,A67G G138A,0.97
6,C25U U57C,1.42
7,A22U U39C,0.34
8,U2C G29A,1.36
9,A47G U72A,0.09
10,G1U U139C,0.98
11,A4C A111G,0.04
12,A110C A125G,0.11
13,C40U U103C,0.96
14,A114C A125G,0.01
15,A60U A140G,2.47
16,G104C,0.02
17,A110G A116G,0.06
18,A82U U97C,0.06
19,A111U A125G,0.01
20,U19C U43A,2.04
21,A140C,1.4
22,A66U U70A,0.62
23,A52G C105A,0.02
24,U103A G138A,0.68

row,Variant,self-cleavage
1,U2A A64G,1.24
2,A36G A67G,1.7
3,U19C A22G,1.12
4,A23U A54G,1.59
5,U70A A116G,0.59
6,A51G G136A,2
7,U3C A114G,0.47
8,U38A U120C,1.12
9,A60U A82U,0.45
10,A60U A82G,0.66
11,A18G A134G,1.8
12,U19C A118C,1.15
13,U70C A95G,1.84
14,U49C A140G,2.12
15,U120G,1.31
16,U120C,0.8
17,A24G A47G,0.73
18,U12G A60G,1.59
19,A30U U72C,0.27
20,A95G A96C,0.77
21,C10A A96G,1.33
22,A51U A64G,1.28
23,G83A A117U,1.21

# From the RNAGym collection of RNA variant scans (doi:10.7554/elife.90254)
